# B1: 22223 (protein)
# chain: MALPVTALLLPLALLLHAARPDIQMTQSPSSLSASVGDRVTITCKASDHINNWLAWYQQKPGQAPKLLIYGATTLETGVPSRFSGSGSGTDYTLTISSLQPEDFATYYCQQSWNTPWTFGQGTKLEIKRLEDLKNVFPPEVAVFEPSEAEISHTQKATLVCLATGFYPDHVELSWWVNGKEVHSGVCTDPQPLKEQPALNDSRYCLSSRLRVSATFWQNPRNHFRCQVQFYGLSENDEWTQDRAKPVTQIVSAEAWGRADCGFTSESYQQGVLSATILYEILLGKATLYAVLVSALVLMAMVKRKDSRGRAKRSGSGATNFSLLKQAGDVEENPGPTSATMDWIWRILFLVGAATGAHSGPQLGPYELWELSHGSGPLGIAGIFEQVQLQQPGAELVKPGASVKMSCKASGYAFSSYWINWMKQKPGQGLEWIGQIYPGDGDTNYNGKFKGRATLTADTSSSTAYMQLSSLTSEDSAVYFCARSITTVVGCAMDYWGQGTSVTVSSTRIQNPDPAVYQLRDSKSSDKSVCLFTDFDSQTNVSQSKDSDVYITDKCVLDMRSMDFKSNSAVAWSNKSDFACANAFNNSIIPEDTFFPSPESSCDVKLVEKSFETDTNLNFQNLSVIGFRILLLKVAGFNLLMTLRLWSSRAKRSGSGVKQTLNFDLLKLAGDVESNPGPSRGHMTEYKPTVRLATRDDVPRAVRTLAAAFADYPATRHTVDPDRHIERVTELQELFLTRVGLDIGKVWVADDGAAVAVWTTPESVEAGAVFAEIGPRMAELSGSRLAAQQQMEGLLAPHRPKEPAWFLATVGVSPDHQGKGLGSAVVLPGVEAAERAGVPAFLETSAPRNLPFYERLGFTVTADVEVPEGPRTWCMTRKPGA
# B2: 22218 (protein)
# chain: MALPVTALLLPLALLLHAARPACQDKLTQWPKWLEGTGGGGSGGGGSGGGGSEFDIQMTQSPSSLSASVGDRVTITCKASDHINNWLAWYQQKPGQAPKLLIYGATTLETGVPSRFSGSGSGTDYTLTISSLQPEDFATYYCQQSWNTPWTFGQGTKLEIKRLEDLKNVFPPEVAVFEPSKAEIAHTQKATLVCLATGFYPDHVELSWWVNGKEVHSGVCTDPQPLKEQPALNDSRYCLSSRLRVSATFWQNPRNHFRCQVQFYGLSENDEWTQDRAKPVTQIVSAEAWGRADCGITSASYHQGVLSATILYEILLGKATLYAVLVSALVLMAMVKRKDSRGRAKRSGSGATNFSLLKQAGDVEENPGPTSATMDWIWRILFLVGAATGAHSGPQVQLQESGGGLAQAGGSLRLSCAASGRTFSMGWFRQAPGKEREFVAAITYSGGSPYYASSVRGRFTISRDNAKNTVYLQMNSLKPEDTAVYYCAANPTYGSDWNAENWGQGTQVTVSSGSGGGGSGGGGSGGGGSFEQVQLQQPGAELVKPGASVKMSCKASGYAFSSYWINWMKQKPGQGLEWIGQIYPGDGDTNYNGKFKGRATLTADTSSSTAYMQLSSLTSEDSAVYFCARSITTVVGCAMDYWGQGTSVTVSSTRIQNPDPAVYQLRDSKSSDKSVCLFTDFDSQTNVSQSKDSDVYITDKCVLDMRSMDFKSNSAVAWSNKSDFACANAFNNSIIPEDTFFPSSDVPCDVKLVEKSFETDTNLNFQNLSVIGFRILLLKVAGFNLLMTLRLWSSRAKRSGSGVKQTLNFDLLKLAGDVESNPGPSRGHMTEYKPTVRLATRDDVPRAVRTLAAAFADYPATRHTVDPDRHIERVTELQELFLTRVGLDIGKVWVADDGAAVAVWTTPESVEAGAVFAEIGPRMAELSGSRLAAQQQMEGLLAPHRPKEPAWFLATVGVSPDHQGKGLGSAVVLPGVEAAERAGVPAFLETSAPRNLPFYERLGFTVTADVEVPEGPRTWCMTRKPGA
# B3: 22194 (protein)
# chain: MALPVTALLLPLALLLHAARPQLQLQESGPGLVKPSETLSLTCTVSGDSISSGDYYWGWIRQPPGKGLEWIGHIYYSGVTYYNPSLKSRVTISVDTSRNQFSLKLSSVTAADTAVYYCTREDSSNWRSRGQGTLVTVSSLEGQPKANPTVTLFPPSSEELQANKATLVCLISDFYPGAVTVAWKADGSPVKAGVETTKPSKQSNNKYAASSYLSLTPEQWKSHRSYSCQVTHEGSTVEKTVAPTECSPIKTDVITMDPKDNCSKDANDTLLLQLTNTSAYYMYLLLLLKSVVYFAIITCCLLRRTAFCCNGEKSRAKRSGSGATNFSLLKQAGDVEENPGPTSMDWIWRILFLVGAATGAHSFEYAKEMRNAYWEIALLPNLTNQQKRAPIRKLYDDPSQSSELLSEAKKLNDSQTRASTKGPSVFPLAPSSKSTSGGTAALGCLVKDYFPEPVTVSWNSGALTSGVHTFPAVLQSSGLYSLSSVVTVPSSSLGTQTYICNVNHKPSNTKVDKRVEPKSCEVKTDSTDHVKPKETENTKQPSKSCHKPKAIVHTEKVNMMSLTVLGLRMLFAKTVAVNFLLTAKLFFLRAKRSGSGVKQTLNFDLLKLAGDVESNPGPSRGHMTEYKPTVRLATRDDVPRAVRTLAAAFADYPATRHTVDPDRHIERVTELQELFLTRVGLDIGKVWVADDGAAVAVWTTPESVEAGAVFAEIGPRMAELSGSRLAAQQQMEGLLAPHRPKEPAWFLATVGVSPDHQGKGLGSAVVLPGVEAAERAGVPAFLETSAPRNLPFYERLGFTVTADVEVPEGPRTWCMTRKPGA
# B4: 22222 (protein)
# chain: MALPVTALLLPLALLLHAARPACPQLGPYELWELSHGTGAVVRGAEFDIQMTQSPSSLSASVGDRVTITCKASDHINNWLAWYQQKPGQAPKLLIYGATTLETGVPSRFSGSGSGTDYTLTISSLQPEDFATYYCQQSWNTPWTFGQGTKLEIKRLEDLKNVFPPEVAVFEPSKAEIAHTQKATLVCLATGFYPDHVELSWWVNGKEVHSGVCTDPQPLKEQPALNDSRYCLSSRLRVSATFWQNPRNHFRCQVQFYGLSENDEWTQDRAKPVTQIVSAEAWGRADCGITSASYHQGVLSATILYEILLGKATLYAVLVSALVLMAMVKRKDSRGRAKRSGSGATNFSLLKQAGDVEENPGPTSATMDWIWRILFLVGAATGAHSGPQVQLQESGGGLAQAGGSLRLSCAASGRTFSMGWFRQAPGKEREFVAAITYSGGSPYYASSVRGRFTISRDNAKNTVYLQMNSLKPEDTAVYYCAANPTYGSDWNAENWGQGTQVTVSSGSGGGGSGGGGSGGGGSFEQVQLQQPGAELVKPGASVKMSCKASGYAFSSYWINWMKQKPGQGLEWIGQIYPGDGDTNYNGKFKGRATLTADTSSSTAYMQLSSLTSEDSAVYFCARSITTVVGCAMDYWGQGTSVTVSSTRIQNPDPAVYQLRDSKSSDKSVCLFTDFDSQTNVSQSKDSDVYITDKCVLDMRSMDFKSNSAVAWSNKSDFACANAFNNSIIPEDTFFPSSDVPCDVKLVEKSFETDTNLNFQNLSVIGFRILLLKVAGFNLLMTLRLWSSRAKRSGSGVKQTLNFDLLKLAGDVESNPGPSRGHMTEYKPTVRLATRDDVPRAVRTLAAAFADYPATRHTVDPDRHIERVTELQELFLTRVGLDIGKVWVADDGAAVAVWTTPESVEAGAVFAEIGPRMAELSGSRLAAQQQMEGLLAPHRPKEPAWFLATVGVSPDHQGKGLGSAVVLPGVEAAERAGVPAFLETSAPRNLPFYERLGFTVTADVEVPEGPRTWCMTRKPGA
# B5: 22219 (protein)
# chain: MALPVTALLLPLALLLHAARPDIQMTQSPSSLSASVGDRVTITCKASDHINNWLAWYQQKPGQAPKLLIYGATTLETGVPSRFSGSGSGTDYTLTISSLQPEDFATYYCQQSWNTPWTFGQGTKLEIKRLEDLKNVFPPEVAVFEPSEAEISHTQKATLVCLATGFYPDHVELSWWVNGKEVHSGVCTDPQPLKEQPALNDSRYCLSSRLRVSATFWQNPRNHFRCQVQFYGLSENDEWTQDRAKPVTQIVSAEAWGRADCGFTSESYQQGVLSATILYEILLGKATLYAVLVSALVLMAMVKRKDSRGRAKRSGSGATNFSLLKQAGDVEENPGPTSATMDWIWRILFLVGAATGAHSGPSACPYSNPSLCSGSGGGGSGGGGSGGGGSFEQVQLQQPGAELVKPGASVKMSCKASGYAFSSYWINWMKQKPGQGLEWIGQIYPGDGDTNYNGKFKGRATLTADTSSSTAYMQLSSLTSEDSAVYFCARSITTVVGCAMDYWGQGTSVTVSSTRIQNPDPAVYQLRDSKSSDKSVCLFTDFDSQTNVSQSKDSDVYITDKCVLDMRSMDFKSNSAVAWSNKSDFACANAFNNSIIPEDTFFPSPESSCDVKLVEKSFETDTNLNFQNLSVIGFRILLLKVAGFNLLMTLRLWSSRAKRSGSGVKQTLNFDLLKLAGDVESNPGPSRGHMTEYKPTVRLATRDDVPRAVRTLAAAFADYPATRHTVDPDRHIERVTELQELFLTRVGLDIGKVWVADDGAAVAVWTTPESVEAGAVFAEIGPRMAELSGSRLAAQQQMEGLLAPHRPKEPAWFLATVGVSPDHQGKGLGSAVVLPGVEAAERAGVPAFLETSAPRNLPFYERLGFTVTADVEVPEGPRTWCMTRKPGA
# B6: 22183 (protein)
# chain: MALPVTALLLPLALLLHAARPACQVQLQESGAGLLKPSETLSLTCAVYGGSFSAYNWNWIRQPPGKGLEWIGEINHRGDTAYNPSLKSRVTISVDTSKNQFSLNLTSVTAADTAVYYCAARGYSYGWPPGYISDAFDIWGQGTQVTVSSGTGGGGSGGGGSGGGGSEFDIQMTQSPSSLSASVGDRVTITCKASDHINNWLAWYQQKPGQAPKLLIYGATTLETGVPSRFSGSGSGTDYTLTISSLQPEDFATYYCQQSWNTPWTFGQGTKLEIKRLEDLKNVFPPEVAVFEPSEAEISHTQKATLVCLATGFYPDHVELSWWVNGKEVHSGVCTDPQPLKEQPALNDSRYCLSSRLRVSATFWQNPRNHFRCQVQFYGLSENDEWTQDRAKPVTQIVSAEAWGRADCGFTSESYQQGVLSATILYEILLGKATLYAVLVSALVLMAMVKRKDSRGRAKRSGSGATNFSLLKQAGDVEENPGPTSMDWIWRILFLVGAATGAHSFEQVQLQQPGAELVKPGASVKMSCKASGYAFSSYWINWMKQKPGQGLEWIGQIYPGDGDTNYNGKFKGRATLTADTSSSTAYMQLSSLTSEDSAVYFCARSITTVVGCAMDYWGQGTSVTVSSTRIQNPDPAVYQLRDSKSSDKSVCLFTDFDSQTNVSQSKDSDVYITDKCVLDMRSMDFKSNSAVAWSNKSDFACANAFNNSIIPEDTFFPSPESSCDVKLVEKSFETDTNLNFQNLSVIGFRILLLKVAGFNLLMTLRLWSSRAKRSGSGVKQTLNFDLLKLAGDVESNPGPSRGHMTEYKPTVRLATRDDVPRAVRTLAAAFADYPATRHTVDPDRHIERVTELQELFLTRVGLDIGKVWVADDGAAVAVWTTPESVEAGAVFAEIGPRMAELSGSRLAAQQQMEGLLAPHRPKEPAWFLATVGVSPDHQGKGLGSAVVLPGVEAAERAGVPAFLETSAPRNLPFYERLGFTVTADVEVPEGPRTWCMTRKPGA
# Test system: RAJI cells
# Assay: JNG assay, co-culture with RAJI cells
# Type: cell-based
# Conditions: JNG cells expressing construct, co-culture with Raji
# Procedure, shortened: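 Read-out is NFAT-driven GFP measured by flow cytometry after ~4–18 h co-culture of SAR-expressing JNG cells with target cells (E:T about 1:2). SARs were introduced by lentiviral spinfection and selected with puromycin or blasticidin when possible; scores (+/- to 5+ ≈ 5–50% GFP+) are relative to parental JNG cells.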
row,Molecule,NFAT-GFP ASSAY: Raji
1,B1,"Raji (3+) (refer to approximately 5%, 10%, 20%, 30%, 40% and 50% GFP positive cells)"
2,B2,"Raji (3+) (refer to approximately 5%, 10%, 20%, 30%, 40% and 50% GFP positive cells)"
3,B3,"4+ (refer to approximately 5%, 10%, 20%, 30%, 40% and 50% GFP positive cells)"
4,B4,"Raji (2+) (refer to approximately 5%, 10%, 20%, 30%, 40% and 50% GFP positive cells)"
5,B5,"Raji (+/-) (refer to approximately 5%, 10%, 20%, 30%, 40% and 50% GFP positive cells)"
6,B6,"5+ (refer to approximately 5%, 10%, 20%, 30%, 40% and 50% GFP positive cells)"

# Reference: patent US20230212319A1, “NOVEL ANTIGEN BINDING DOMAINS AND SYNTHETIC ANTIGEN RECEPTORS INCORPORATING THE SAME” (University of Southern California, priority 2020, published 2023)
